Data as given in article PMC8808184 (The Journal of Biological Chemistry, 2021).

T1: FN1–FN3 region of CNTN5 titrated against human APLP1(E1) and human APLP2(E1) ( (chicken, human, mouse and …, UniProt O94779 673-972))
T1 construct: contactin 5, FN1–FN3; source: E. coli BL21(DE3), purified (IMAC, 3C protease cleavage, ion exchange, gel filtration)
T1 sequence (looked up): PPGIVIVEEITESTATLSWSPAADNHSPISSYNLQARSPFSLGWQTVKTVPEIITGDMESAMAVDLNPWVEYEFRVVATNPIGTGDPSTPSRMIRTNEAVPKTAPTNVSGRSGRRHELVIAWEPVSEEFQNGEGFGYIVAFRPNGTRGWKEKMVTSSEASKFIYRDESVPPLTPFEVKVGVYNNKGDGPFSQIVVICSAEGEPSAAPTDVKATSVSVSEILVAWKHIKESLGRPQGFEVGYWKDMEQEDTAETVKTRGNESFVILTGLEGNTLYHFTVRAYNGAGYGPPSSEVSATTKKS

B1: FN1–FN3 region of human CNTN4 (domain or fragment, UniProt Q8IWV2 599-899, looked up)
chain: PPEAVTIDEITDTTAQLSWRPGPDNHSPITMYVIQARTPFSVGWQAVSTVPELIDGKTFTATVVGLNPWVEYEFRTVAANVIGIGEPSRPSEKRRTEEALPEVTPANVSGGGGSKSELVITWETVPEELQNGRGFGYVVAFRPYGKMIWMLTVLASADASRYVFRNESVHPFSPFEVKVGVFNNKGEGPFSPTTVVYSAEEEPTKPPASIFARSLSATDIEVFWASPLEKNRGRIQGYEVKYWRHEDKEENARKIRTVGNQTSTKITNLKGSVLYHLAVKAYNSAGTGPSSATVNVTTRKP
notes: human contactin 4, FN1–FN3; source: E. coli BL21(DE3), purified (IMAC, 3C protease cleavage, ion exchange, gel filtration)
B2: E1 domain of human APLP2 (domain or fragment, UniProt Q06481 46-205, looked up)
chain: AVAEPQIAMFCGKLNMHVNIQTGKWEPDPTGTKSCFETKEEVLQYCQEMYPELQITNVMEANQRVSIDNWCRRDKKQCKSRFVTPFKCLVGEFVSDVLLVPEKCQFFHKERMEVCENHQHWHTVVKEACLTQGMTLYSYGMLLPCGVDQFHGTEYVCCPQ
modifications: biotin (EZ-Link NHS-PEG4-Biotin, 1:1 molar ratio)
notes: human amyloid beta precursor like protein 2, E1 domain; host and tags are those told for the E1 domains in general; source: E. coli Origami2(DE3), purified (as told for the E1 domains)

What was measured:
Test in all cases: BLI; biotinylated E1 domain ([…] nM) immobilised on streptavidin tips, CNTN FN1–FN3 in solution; room temperature; 150 mM NaCl, 10 mM Na-Hepes pH 7.5, 1 mg/ml BSA, 0.02% Tween-20; BLItz or Octet K2; KD from the signal at equilibrium
Details in all cases: both partners purified
E1 domain of human APLP2 = molecular target: B2
[1] = molecular target: T1, FN1–FN3 region of CNTN5 titrated …
[2] = molecular target: B1

| Binder | fold decrease in affinity against human CNTN4 with APLP1 (E1 domain of human APLP2) [fold] | Kd [1] [µM] | Kd [2] [µM] |
| --- | --- | --- | --- |
| B1 | 4 |  |  |
| B2 |  | ~38 | 6.3 |
